Reference: the RNAGym collection of RNA variant scans (doi:10.1021/acssynbio.7b00057)

B1: Pistol ribozyme (parent)
chain: GGGUCGUUGUUCCAUAAUCGCGUGGAUAUGGCACGCAAGUUUCUACCGGGCACCGUAAAUGUCCGACUGGAGCCGUUCGGGCGGCUAUAAACAGACCUCAGGCCCGAAGCGUGGCGGCACCUGCCGCCGGUGGUAAAAAAGAUCGGAAGAGCACACGUCU

Variants of: B1
Assay: aptazyme ON/OFF ratio, guanine; higher = stronger switching; co-transcriptional cleavage with and without guanine

| Variant | aptazyme ON/OFF ratio |
| --- | --- |
| GGGUCGACGUACUAUAAUCGCGUGGAUAUGGCACGCAAGUUUCUACCGGGCACCGUAAAUGUCCGACUGGAGCCGUUCGGGCGGCUAUAAACAGACCUCAGGCCCGAAGCGUGGCGGCACCUGCCGCCGGUGGUAAAAAAGAUCGGAAGAGCACACGUCU [U7A U8C U11A C13U] | 1.15 |
| GGGUCGACGUACAAUAAUCGCGUGGAUAUGGCACGCAAGUUUCUACCGGGCACCGUAAAUGUCCGACUGGAGCCGUUCGGGCGGCUAUAAACAGACCUCAGGCCCGAAGCGUGGCGGCACCUGCCGCCGGUGGUAAAAAAGAUCGGAAGAGCACACGUCU [U7A U8C U11A C13A] | 1.14 |
| GGGUCGACGUACGAUAAUCGCGUGGAUAUGGCACGCAAGUUUCUACCGGGCACCGUAAAUGUCCGACUGGAGCCGUUCGGGCGGCUAUAAACAGACCUCAGGCCCGAAGCGUGGCGGCACCUGCCGCCGGUGGUAAAAAAGAUCGGAAGAGCACACGUCU [U7A U8C U11A C13G] | 1.13 |
| GGGUCGACGUGGUAUAAUCGCGUGGAUAUGGCACGCAAGUUUCUACCGGGCACCGUAAAUGUCCGACUGGAGCCGUUCGGGCGGCUAUAAACAGACCUCAGGCCCGAAGCGUGGCGGCACCUGCCGCCGGUGGUAAAAAAGAUCGGAAGAGCACACGUCU [U7A U8C U11G C12G C13U] | 1.11 |
| GGGUCGACGUGGAAUAAUCGCGUGGAUAUGGCACGCAAGUUUCUACCGGGCACCGUAAAUGUCCGACUGGAGCCGUUCGGGCGGCUAUAAACAGACCUCAGGCCCGAAGCGUGGCGGCACCUGCCGCCGGUGGUAAAAAAGAUCGGAAGAGCACACGUCU [U7A U8C U11G C12G C13A] | 1.04 |
| GGGUCGACGUGGGAUAAUCGCGUGGAUAUGGCACGCAAGUUUCUACCGGGCACCGUAAAUGUCCGACUGGAGCCGUUCGGGCGGCUAUAAACAGACCUCAGGCCCGAAGCGUGGCGGCACCUGCCGCCGGUGGUAAAAAAGAUCGGAAGAGCACACGUCU [U7A U8C U11G C12G C13G] | 1.1 |
| GGGUCGACGUCUAAUAAUCGCGUGGAUAUGGCACGCAAGUUUCUACCGGGCACCGUAAAUGUCCGACUGGAGCCGUUCGGGCGGCUAUAAACAGACCUCAGGCCCGAAGCGUGGCGGCACCUGCCGCCGGUGGUAAAAAAGAUCGGAAGAGCACACGUCU [U7A U8C U11C C12U C13A] | 1.28 |
| GGGUCGACGUCUGAUAAUCGCGUGGAUAUGGCACGCAAGUUUCUACCGGGCACCGUAAAUGUCCGACUGGAGCCGUUCGGGCGGCUAUAAACAGACCUCAGGCCCGAAGCGUGGCGGCACCUGCCGCCGGUGGUAAAAAAGAUCGGAAGAGCACACGUCU [U7A U8C U11C C12U C13G] | 1.29 |
| GGGUCGACGUCUUAUAAUCGCGUGGAUAUGGCACGCAAGUUUCUACCGGGCACCGUAAAUGUCCGACUGGAGCCGUUCGGGCGGCUAUAAACAGACCUCAGGCCCGAAGCGUGGCGGCACCUGCCGCCGGUGGUAAAAAAGAUCGGAAGAGCACACGUCU [U7A U8C U11C C12U C13U] | 1.29 |
| GGGUCGACGUCCCAUAAUCGCGUGGAUAUGGCACGCAAGUUUCUACCGGGCACCGUAAAUGUCCGACUGGAGCCGUUCGGGCGGCUAUAAACAGACCUCAGGCCCGAAGCGUGGCGGCACCUGCCGCCGGUGGUAAAAAAGAUCGGAAGAGCACACGUCU [U7A U8C U11C] | 1.2 |
| GGGUCGACGUGCCAUAAUCGCGUGGAUAUGGCACGCAAGUUUCUACCGGGCACCGUAAAUGUCCGACUGGAGCCGUUCGGGCGGCUAUAAACAGACCUCAGGCCCGAAGCGUGGCGGCACCUGCCGCCGGUGGUAAAAAAGAUCGGAAGAGCACACGUCU [U7A U8C U11G] | 1.37 |
| GGGUCGACGUGAUAUAAUCGCGUGGAUAUGGCACGCAAGUUUCUACCGGGCACCGUAAAUGUCCGACUGGAGCCGUUCGGGCGGCUAUAAACAGACCUCAGGCCCGAAGCGUGGCGGCACCUGCCGCCGGUGGUAAAAAAGAUCGGAAGAGCACACGUCU [U7A U8C U11G C12A C13U] | 1.16 |
| GGGUCGACGUGAAAUAAUCGCGUGGAUAUGGCACGCAAGUUUCUACCGGGCACCGUAAAUGUCCGACUGGAGCCGUUCGGGCGGCUAUAAACAGACCUCAGGCCCGAAGCGUGGCGGCACCUGCCGCCGGUGGUAAAAAAGAUCGGAAGAGCACACGUCU [U7A U8C U11G C12A C13A] | 1.07 |
| GGGUCGACGUGAGAUAAUCGCGUGGAUAUGGCACGCAAGUUUCUACCGGGCACCGUAAAUGUCCGACUGGAGCCGUUCGGGCGGCUAUAAACAGACCUCAGGCCCGAAGCGUGGCGGCACCUGCCGCCGGUGGUAAAAAAGAUCGGAAGAGCACACGUCU [U7A U8C U11G C12A C13G] | 1.12 |
| GGGUCGACGUCGCAUAAUCGCGUGGAUAUGGCACGCAAGUUUCUACCGGGCACCGUAAAUGUCCGACUGGAGCCGUUCGGGCGGCUAUAAACAGACCUCAGGCCCGAAGCGUGGCGGCACCUGCCGCCGGUGGUAAAAAAGAUCGGAAGAGCACACGUCU [U7A U8C U11C C12G] | 1.63 |
| GGGUCGACGUCUCAUAAUCGCGUGGAUAUGGCACGCAAGUUUCUACCGGGCACCGUAAAUGUCCGACUGGAGCCGUUCGGGCGGCUAUAAACAGACCUCAGGCCCGAAGCGUGGCGGCACCUGCCGCCGGUGGUAAAAAAGAUCGGAAGAGCACACGUCU [U7A U8C U11C C12U] | 1.46 |
| GGGUCGACGUCACAUAAUCGCGUGGAUAUGGCACGCAAGUUUCUACCGGGCACCGUAAAUGUCCGACUGGAGCCGUUCGGGCGGCUAUAAACAGACCUCAGGCCCGAAGCGUGGCGGCACCUGCCGCCGGUGGUAAAAAAGAUCGGAAGAGCACACGUCU [U7A U8C U11C C12A] | 1.39 |
| GGGUCGACGUCCUAUAAUCGCGUGGAUAUGGCACGCAAGUUUCUACCGGGCACCGUAAAUGUCCGACUGGAGCCGUUCGGGCGGCUAUAAACAGACCUCAGGCCCGAAGCGUGGCGGCACCUGCCGCCGGUGGUAAAAAAGAUCGGAAGAGCACACGUCU [U7A U8C U11C C13U] | 1.17 |

| Variant | aptazyme ON/OFF ratio |
| --- | --- |
| GGGUCGACGUCCGAUAAUCGCGUGGAUAUGGCACGCAAGUUUCUACCGGGCACCGUAAAUGUCCGACUGGAGCCGUUCGGGCGGCUAUAAACAGACCUCAGGCCCGAAGCGUGGCGGCACCUGCCGCCGGUGGUAAAAAAGAUCGGAAGAGCACACGUCU [U7A U8C U11C C13G] | 1.13 |
| GGGUCGACGUCCAAUAAUCGCGUGGAUAUGGCACGCAAGUUUCUACCGGGCACCGUAAAUGUCCGACUGGAGCCGUUCGGGCGGCUAUAAACAGACCUCAGGCCCGAAGCGUGGCGGCACCUGCCGCCGGUGGUAAAAAAGAUCGGAAGAGCACACGUCU [U7A U8C U11C C13A] | 1.19 |
| GGGUCGACGUGUUAUAAUCGCGUGGAUAUGGCACGCAAGUUUCUACCGGGCACCGUAAAUGUCCGACUGGAGCCGUUCGGGCGGCUAUAAACAGACCUCAGGCCCGAAGCGUGGCGGCACCUGCCGCCGGUGGUAAAAAAGAUCGGAAGAGCACACGUCU [U7A U8C U11G C12U C13U] | 1.1 |
| GGGUCGACGUGUGAUAAUCGCGUGGAUAUGGCACGCAAGUUUCUACCGGGCACCGUAAAUGUCCGACUGGAGCCGUUCGGGCGGCUAUAAACAGACCUCAGGCCCGAAGCGUGGCGGCACCUGCCGCCGGUGGUAAAAAAGAUCGGAAGAGCACACGUCU [U7A U8C U11G C12U C13G] | 1.06 |
| GGGUCGACGUGUAAUAAUCGCGUGGAUAUGGCACGCAAGUUUCUACCGGGCACCGUAAAUGUCCGACUGGAGCCGUUCGGGCGGCUAUAAACAGACCUCAGGCCCGAAGCGUGGCGGCACCUGCCGCCGGUGGUAAAAAAGAUCGGAAGAGCACACGUCU [U7A U8C U11G C12U C13A] | 1.08 |
| GGGUCGACGUCGGAUAAUCGCGUGGAUAUGGCACGCAAGUUUCUACCGGGCACCGUAAAUGUCCGACUGGAGCCGUUCGGGCGGCUAUAAACAGACCUCAGGCCCGAAGCGUGGCGGCACCUGCCGCCGGUGGUAAAAAAGAUCGGAAGAGCACACGUCU [U7A U8C U11C C12G C13G] | 1.22 |
| GGGUCGACGUCGAAUAAUCGCGUGGAUAUGGCACGCAAGUUUCUACCGGGCACCGUAAAUGUCCGACUGGAGCCGUUCGGGCGGCUAUAAACAGACCUCAGGCCCGAAGCGUGGCGGCACCUGCCGCCGGUGGUAAAAAAGAUCGGAAGAGCACACGUCU [U7A U8C U11C C12G C13A] | 1.32 |
| GGGUCGACGUCGUAUAAUCGCGUGGAUAUGGCACGCAAGUUUCUACCGGGCACCGUAAAUGUCCGACUGGAGCCGUUCGGGCGGCUAUAAACAGACCUCAGGCCCGAAGCGUGGCGGCACCUGCCGCCGGUGGUAAAAAAGAUCGGAAGAGCACACGUCU [U7A U8C U11C C12G C13U] | 1.5 |
| GGGUCGACGUGUCAUAAUCGCGUGGAUAUGGCACGCAAGUUUCUACCGGGCACCGUAAAUGUCCGACUGGAGCCGUUCGGGCGGCUAUAAACAGACCUCAGGCCCGAAGCGUGGCGGCACCUGCCGCCGGUGGUAAAAAAGAUCGGAAGAGCACACGUCU [U7A U8C U11G C12U] | 1.28 |
| GGGUCGACGUGACAUAAUCGCGUGGAUAUGGCACGCAAGUUUCUACCGGGCACCGUAAAUGUCCGACUGGAGCCGUUCGGGCGGCUAUAAACAGACCUCAGGCCCGAAGCGUGGCGGCACCUGCCGCCGGUGGUAAAAAAGAUCGGAAGAGCACACGUCU [U7A U8C U11G C12A] | 1.19 |
| GGGUCGACGUGGCAUAAUCGCGUGGAUAUGGCACGCAAGUUUCUACCGGGCACCGUAAAUGUCCGACUGGAGCCGUUCGGGCGGCUAUAAACAGACCUCAGGCCCGAAGCGUGGCGGCACCUGCCGCCGGUGGUAAAAAAGAUCGGAAGAGCACACGUCU [U7A U8C U11G C12G] | 1.09 |
| GGGUCGACGUAUUAUAAUCGCGUGGAUAUGGCACGCAAGUUUCUACCGGGCACCGUAAAUGUCCGACUGGAGCCGUUCGGGCGGCUAUAAACAGACCUCAGGCCCGAAGCGUGGCGGCACCUGCCGCCGGUGGUAAAAAAGAUCGGAAGAGCACACGUCU [U7A U8C U11A C12U C13U] | 1.28 |
| GGGUCGACGUAUAAUAAUCGCGUGGAUAUGGCACGCAAGUUUCUACCGGGCACCGUAAAUGUCCGACUGGAGCCGUUCGGGCGGCUAUAAACAGACCUCAGGCCCGAAGCGUGGCGGCACCUGCCGCCGGUGGUAAAAAAGAUCGGAAGAGCACACGUCU [U7A U8C U11A C12U C13A] | 1.15 |
| GGGUCGACGUAUGAUAAUCGCGUGGAUAUGGCACGCAAGUUUCUACCGGGCACCGUAAAUGUCCGACUGGAGCCGUUCGGGCGGCUAUAAACAGACCUCAGGCCCGAAGCGUGGCGGCACCUGCCGCCGGUGGUAAAAAAGAUCGGAAGAGCACACGUCU [U7A U8C U11A C12U C13G] | 1.24 |
| GGGUCGACGUCAAAUAAUCGCGUGGAUAUGGCACGCAAGUUUCUACCGGGCACCGUAAAUGUCCGACUGGAGCCGUUCGGGCGGCUAUAAACAGACCUCAGGCCCGAAGCGUGGCGGCACCUGCCGCCGGUGGUAAAAAAGAUCGGAAGAGCACACGUCU [U7A U8C U11C C12A C13A] | 1.44 |
| GGGUCGACGUCAGAUAAUCGCGUGGAUAUGGCACGCAAGUUUCUACCGGGCACCGUAAAUGUCCGACUGGAGCCGUUCGGGCGGCUAUAAACAGACCUCAGGCCCGAAGCGUGGCGGCACCUGCCGCCGGUGGUAAAAAAGAUCGGAAGAGCACACGUCU [U7A U8C U11C C12A C13G] | 1.31 |
| GGGUCGACGUCAUAUAAUCGCGUGGAUAUGGCACGCAAGUUUCUACCGGGCACCGUAAAUGUCCGACUGGAGCCGUUCGGGCGGCUAUAAACAGACCUCAGGCCCGAAGCGUGGCGGCACCUGCCGCCGGUGGUAAAAAAGAUCGGAAGAGCACACGUCU [U7A U8C U11C C12A C13U] | 1.37 |
| GGGUCGACGUAUCAUAAUCGCGUGGAUAUGGCACGCAAGUUUCUACCGGGCACCGUAAAUGUCCGACUGGAGCCGUUCGGGCGGCUAUAAACAGACCUCAGGCCCGAAGCGUGGCGGCACCUGCCGCCGGUGGUAAAAAAGAUCGGAAGAGCACACGUCU [U7A U8C U11A C12U] | 1.23 |
